Results from patent US8969060B2, “Modified glucose dehydrogenase” (Ikeda Food Research Co., Ltd., priority 2011, dated 2015).
Changes are numbered by the printed parent chain. In names and notes the source's numbering stands. Several values for one entry are separate records, joined by “and”; a condition that tells them apart may be missing. Identical values can stand only once.

B1: Wild-type: wild-type FAD-conjugated glucose dehydrogenase (GLD) of Aspergillus terreus FERM BP-08578, SEQ ID NO: 1 (protein, listed as Aspergillus terreus)
chain: MLGKLSFLSALSLAVAAPLSNSTSAKYDYIVIGGGTSGLAVANRLSEDPNVNVLILEAGGSVWNNPNVTNVDGYGLAFGSDIDWQYQSVNQPYGGNLSQVLRAGKALGGTSTINGMAYTRAEDVQIDAWETIGNTGWTWKNLFPYYRKSENFTVPTKSQTSLGASYEAGAHGHEGPLDVAFTQIESNNLTTYLNRTFQGMGLPWTEDVNGGKMRGFNLYPSTVNLEEYVREDAARAYYWPYKSRPNLHVLLNTFANRIVWDGEAHDGHITASGVEITSRNGTVRVINAEKEVIVSAGALKSPAILELSGIGNPSVLDKHNIPVKVNLPTVGENLQDQVNSHMDASGNTSISGTKAVSYPDVYDVFGDEAESVAKQIRANLKQYAADTAKANGNIMKAADLERLFEVQYDLIFKGRVPIAEVLNYPGSATSVFAEFWALLPFARGSVHIGSSNPAEFPVINPNYFMLDWDAKSYVAVAKYIRRSFESYPLSSIVKESTPGYDVIPRNASEQSWKEWVFDKNYRSNFHPVGTAAMMPREIGGVVDERLNVYGTTNVRVVDASVLPFQVCGHLVSTLYAVAERAADLIKADAGRR
modifications: FAD cofactor; SIGNAL (1)..(19)
B2: G426S: modified GLD: SEQ ID NO: 1 with substitution G426S (protein, listed as Aspergillus terreus)
chain: B1 chain with G426S
modifications: SIGNAL (1)..(19)
B3: F432M: modified GLD: SEQ ID NO: 1 with substitution F432M (protein, listed as Aspergillus terreus)
chain: B1 chain with F432M
modifications: SIGNAL (1)..(19)
B4: F432T: modified GLD: SEQ ID NO: 1 with substitution F432T (protein, listed as Aspergillus terreus)
chain: B1 chain with F432T
modifications: SIGNAL (1)..(19)
B5: G426Y: modified GLD: SEQ ID NO: 1 with substitution G426Y (protein, listed as Aspergillus terreus)
chain: B1 chain with G426Y
modifications: SIGNAL (1)..(19)
B6: G426W: modified GLD: SEQ ID NO: 1 with substitution G426W (protein, listed as Aspergillus terreus)
chain: B1 chain with G426W
modifications: SIGNAL (1)..(19)
B7: G426T: modified GLD: SEQ ID NO: 1 with substitution G426T (protein, listed as Aspergillus terreus)
chain: B1 chain with G426T
modifications: SIGNAL (1)..(19)
B8: F432R: modified GLD: SEQ ID NO: 1 with substitution F432R (protein, listed as Aspergillus terreus)
chain: B1 chain with F432R
modifications: SIGNAL (1)..(19)
B9: F432V: modified GLD: SEQ ID NO: 1 with substitution F432V (protein, listed as Aspergillus terreus)
chain: B1 chain with F432V
modifications: SIGNAL (1)..(19)
B10: F432K: modified GLD: SEQ ID NO: 1 with substitution F432K (protein, listed as Aspergillus terreus)
chain: B1 chain with F432K
modifications: SIGNAL (1)..(19)
B11: F432I: modified GLD: SEQ ID NO: 1 with substitution F432I (protein, listed as Aspergillus terreus)
chain: B1 chain with F432I
modifications: SIGNAL (1)..(19)
B12: G426A: modified GLD: SEQ ID NO: 1 with substitution G426A (protein, listed as Aspergillus terreus)
chain: B1 chain with G426A
modifications: SIGNAL (1)..(19)
B13: G426C: modified GLD: SEQ ID NO: 1 with substitution G426C (protein, listed as Aspergillus terreus)
chain: B1 chain with G426C
modifications: SIGNAL (1)..(19)
B14: V431F: modified GLD: SEQ ID NO: 1 with substitution V431F (protein, listed as Aspergillus terreus)
chain: B1 chain with V431F
modifications: SIGNAL (1)..(19)
B15: G426V: modified GLD: SEQ ID NO: 1 with substitution G426V (protein, listed as Aspergillus terreus)
chain: B1 chain with G426V
modifications: SIGNAL (1)..(19)
B16: F432Q: modified GLD: SEQ ID NO: 1 with substitution F432Q (protein, listed as Aspergillus terreus)
chain: B1 chain with F432Q
modifications: SIGNAL (1)..(19)
B17: G426D: modified GLD: SEQ ID NO: 1 with substitution G426D (protein, listed as Aspergillus terreus)
chain: B1 chain with G426D
modifications: SIGNAL (1)..(19)

assay: Relative enzymatic activity of GLD (DCIP/1-m-PMS, plate reader, yeast culture supernatant) with 1,10-phenanthroline present; type: biochemical; conditions: random-mutation mutants, sample value with inhibitor at 1 mM / blank value, inhibitor not named in Table 1
Outline: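 Yeast transformants grown in YPD, 30° C., 24 h; diluted culture supernatant assayed in phosphate buffer pH 7.0 with D-glucose, DCIP and 1-m-PMS, DCIP absorbance change at 600 nm. Relative activity (%) = activity with 1 mM 1,10-phenanthroline (final, replacing methanol) divided by activity without it.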

For B1, the “Relative Activity” value was 25.7%.

same assay, conditions: site-specific mutants, inhibitor final concentration 1 mM

Going from B1 to B2, the “Relative Activity [%] 1,10-Phenanthroline” value rises from 30.0% to 80.9%.

Going from B4 to B5, the “Relative Activity [%] 1,10-Phenanthroline” value falls from 89.9% to 61.6%.

Compared with B6, B7 is higher in “Relative Activity [%] 1,10-Phenanthroline” value: 61.0% for the first, 88.5% for the second.

Going from B9 to B10, the “Relative Activity [%] 1,10-Phenanthroline” value rises from 80.2% to 92.1%.

Going from B11 to B12, the “Relative Activity [%] 1,10-Phenanthroline” value falls from 91.8% to 68.7%.

Going from B13 to B14, the “Relative Activity [%] 1,10-Phenanthroline” value rises from 78.0% to 82.1%.

Compared with B15, B16 is lower in “Relative Activity [%] 1,10-Phenanthroline” value: 90.3% for the first, 59.3% for the second.

With B17 the “Relative Activity [%] 1,10-Phenanthroline” value was 56.5%.

With B3 the “Relative Activity [%] 1,10-Phenanthroline” value was 62.5% and 74.2%.
With B8 the “Relative Activity [%] 1,10-Phenanthroline” value was 86.2% and 94.2%.

assay: Relative enzymatic activity of GLD (DCIP/1-m-PMS, plate reader, yeast culture supernatant) with proflavin hydrochloride present; type: biochemical; conditions: site-specific mutants, inhibitor final concentration 1 mM
Outline: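 Culture supernatant diluted and mixed with reagent of phosphate buffer pH 7.0, 1.0 M D-glucose, 3 mM DCIP, 3 mM 1-m-PMS and methanol (0.1:1:0.14:0.2:0.06). DCIP absorbance decrease at 600 nm followed; proflavin hydrochloride in methanol replaced methanol at 1 mM final. Activity expressed as % of inhibitor-free blank.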

First: B1
Second: B2
The “Relative Activity [%] Proflavin hydrochloride” value of the first is lower: 35.0% for the first, 58.0% for the second.

Going from B4 to B5, the “Relative Activity [%] Proflavin hydrochloride” value falls from 80.2% to 47.5%.

Going from B6 to B7, the “Relative Activity [%] Proflavin hydrochloride” value rises from 47.8% to 58.4%.

First: B9
Second: B10
The “Relative Activity [%] Proflavin hydrochloride” value of the first is lower: 70.3% for the first, 79.3% for the second.

Compared with B11, B12 is lower in “Relative Activity [%] Proflavin hydrochloride” value: 80.9% for the first, 51.2% for the second.

Going from B13 to B14, the “Relative Activity [%] Proflavin hydrochloride” value falls from 64.1% to 57.7%.

First: B15
Second: B16
The “Relative Activity [%] Proflavin hydrochloride” value of the first is lower: 59.9% for the first, 67.3% for the second.

In the case of B17, the “Relative Activity [%] Proflavin hydrochloride” value is reported as 34.2%.

For B3, the “Relative Activity [%] Proflavin hydrochloride” value was 71.1% and 66.1%.
In the case of B8, the “Relative Activity [%] Proflavin hydrochloride” value is reported as 73.7% and 72.6%.

assay: Susceptibility of purified enzyme to 1,10-phenanthroline (spectrophotometer); type: biochemical; conditions: inhibitor 1 mM
Protocol: (§1) 1.0 mL of 0.1 M potassium phosphate buffer (pH 7.0), 1.0 mL of 1.0 M D-glucose, 0.14 mL of 3 mM 2,6-dichlorophenol indophenol (hereinafter referred to as DCIP), 0.2 mL of 3 mM 1-methoxy-5-methylphenazinium methylsulfate (hereinafter referred to as 1-m-PMS), 0.06 mL of methanol and 0.55 mL of distilled water are added to a 3-mL quartz cell (light path length: 1 cm), and the cell is placed in a spectrophotometer provided with a thermostat cell holder and incubated at 37° C. for 10 minutes. Thereafter, 0.05 mL of an enzyme solution is added to the cell, and then, a change in the absorbance of DCIP at 600 nm (ΔABS/min) is determined. The molar extinction coefficient of DCIP at pH 7.0 is taken as 16.3×10^3 cm^−1 M^−1, and enzymatic activity to reduce 1 μmol of DCIP per minute is substantially equivalent to 1 unit of the enzymatic activity. Therefore, the enzymatic activity is determined from the change in the absorbance according to Equation I. In Example 8, methanol was replaced with the same amount of distilled water.
(§2) In the following examples, a value of the enzymatic activity determined by the spectrometer or plate reader using the above reagent composition is considered as a blank value. On the other hand, a sample value is determined using a methanol solution comprising the inhibitor such as 1,10-phenanthroline or proflavin hydrochloride at a final concentration of 1 mM instead of the methanol. Enzymatic activity (unit/mL)=(−ΔABS/16.3)×3.0/0.05×(Dilution ratio of enzyme) [Equation 1]
(§3) The mutants having the mutation of H341W and F432L, respectively, were inoculated into a shake flask containing 150 mL the YPD medium. After shaking culture at 30° C. and 120 rpm for 48 hours, the culture mixture was centrifuged at 3,000×g for 5 min. and the supernatant was filtered through a membrane filter with 10 μm. […]
(§4) After diluting the purified enzyme to an appropriate concentration, the sample value and blank value were determined in accordance with the method for determination of the enzymatic activity using the spectrophotometer.

With B1 the “Relative Activity [%] 1,10-Phenanthroline” value was 41.1%.

assay: Susceptibility of purified enzyme to proflavin hydrochloride (spectrophotometer); type: biochemical; conditions: inhibitor 1 mM
Protocol: as §1, §2, §3, §4

In the case of B1, the “Relative Activity [%] Proflavin hydrochloride” value is reported as 50.9%.
